Reference: patent publication US20180327746, “Alpha-AMYLASE-BINDING NUCLEIC ACID MOLECULE AND USE THEREOF” (NEC Solution Innovators, Ltd., published 2018)

Legend:
alpha-amylase [1] = target: T1, alpha-amylase (Homo sapiens, UniProt P0DUB6 P0DUB6:16-511); assay: SPR; 400 nM amylase, 1 mM MgCl2, pH 7.4; conditions: tags: none stated; commercial human alpha-amylase, Lee Biosolutions; label: 3' poly(dA)20 captured on biotin-poly(dT)20
T1 sequence: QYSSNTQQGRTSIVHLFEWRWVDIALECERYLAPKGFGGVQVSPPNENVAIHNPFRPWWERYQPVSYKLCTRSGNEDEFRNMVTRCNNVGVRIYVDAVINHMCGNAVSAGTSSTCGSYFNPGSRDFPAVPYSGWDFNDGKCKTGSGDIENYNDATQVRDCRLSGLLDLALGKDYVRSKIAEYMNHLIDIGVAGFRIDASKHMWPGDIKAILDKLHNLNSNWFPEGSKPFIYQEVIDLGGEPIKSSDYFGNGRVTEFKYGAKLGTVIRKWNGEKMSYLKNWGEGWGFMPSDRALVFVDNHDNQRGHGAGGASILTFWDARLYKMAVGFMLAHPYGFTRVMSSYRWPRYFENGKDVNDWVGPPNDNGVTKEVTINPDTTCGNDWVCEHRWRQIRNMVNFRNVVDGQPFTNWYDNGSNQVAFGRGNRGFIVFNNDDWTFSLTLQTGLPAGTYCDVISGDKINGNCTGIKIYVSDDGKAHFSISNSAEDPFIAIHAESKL
Procedure: The analysis of the binding ability was carried out using a ProteON XPR36 (BioRad) in accordance with its instructions for use.
First, as a sensor chip designed specifically for the ProteON, a streptavidin-immobilized chip (trade name: ProteOn NLC Sensor Chip, BioRad) was set in the ProteON XPR36. Biotinylated poly(dT) at 5 μmol/L was injected to a flow cell of the sensor chip using ultrapure water (DDW), and the binding was allowed to proceed until the signal intensity (RU: Resonance Unit) reached about 900 RU. The biotinylated poly(dT) was prepared by biotinylating the 5′ end of 20-mer deoxythymidine. Then, the poly(dA)-added aptamer at 200 nmol/L was injected to the flow cell of the chip using an SPR buffer at a flow rate of 25 μL/min for 80 seconds, and the binding was allowed to proceed until the signal intensity reached about 800 RU. […] Subsequently, the specimen was injected using the SPR buffer at a flow rate of 50 μL/min for 120 seconds, followed by washing performed by flowing the SPR buffer under the same conditions for 300 seconds. The concentration of the human α-amylase in the specimen was set to 400 nmol/L. Signal intensity measurement was performed concurrently with the injection of the specimen and the washing with the SPR buffer. With 0 seconds being the start of the injection, the mean value of signal intensities from 115 seconds to 125 seconds was determined. […] Then, the value (B/A) obtained by dividing the protein binding measured value (B) by the aptamer immobilization measured value (A) was determined as a relative value (Relative Unit).

alpha-amylase [2] = target: T1, alpha-amylase; assay: SPR; SPR buffer with 1 mM MgCl2, pH 7.4; Chi2 17.73; conditions: tags: none stated; commercial human alpha-amylase, Lee Biosolutions; label: 3' poly(dA)20 captured on biotin-poly(dT)20
Procedure: (§1) Biotinylated poly(dT) at 5 μmol/L was injected to a flow cell of the sensor chip using ultrapure water (DDW), and the binding was allowed to proceed until the signal intensity (RU: Resonance Unit) reached about 900 RU. The biotinylated poly(dT) was prepared by biotinylating the 5′ end of 20-mer deoxythymidine. Then, the poly(dA)-added aptamer at 200 nmol/L was injected to the flow cell of the chip using an SPR buffer at a flow rate of 25 μL/min for 80 seconds, and the binding was allowed to proceed until the signal intensity reached about 800 RU. […] With 0 seconds being the start of the injection, the mean value of signal intensities from 115 seconds to 125 seconds was determined. […] Then, the value (B/A) obtained by dividing the protein binding measured value (B) by the aptamer immobilization measured value (A) was determined as a relative value (Relative Unit).
(§2) The binding ability of the aptamers was analyzed by SPR in the same manner as in Example 1, except that the concentration of the α-amylase in the specimen was set to a plurality of values. The concentration was set to 20 nmol/L, 10 nmol/L, 5 nmol/L, 2.5 nmol/L, and 1.25 nmol/L. Then, from the results obtained by the SPR analysis, the kinetic parameter and the chi-squared value were calculated.

alpha-amylase [3] = target: T1, alpha-amylase; assay: SPR; SPR buffer with 1 mM MgCl2, pH 7.4; Chi2 18.8; conditions: tags: none stated; commercial human alpha-amylase, Lee Biosolutions; label: 3' poly(dA)20 captured on biotin-poly(dT)20
Procedure: as §1, §2

chromogranin A (CgA) = target: T2, chromogranin A (CgA) (Homo sapiens, UniProt P10645 P10645:19-457); assay: capillary electrophoresis specificity control; conditions: tags: N-terminal His-tag; full length, Creative BioMart CHGA-26904TH; label: 5' TYE665
T2 sequence: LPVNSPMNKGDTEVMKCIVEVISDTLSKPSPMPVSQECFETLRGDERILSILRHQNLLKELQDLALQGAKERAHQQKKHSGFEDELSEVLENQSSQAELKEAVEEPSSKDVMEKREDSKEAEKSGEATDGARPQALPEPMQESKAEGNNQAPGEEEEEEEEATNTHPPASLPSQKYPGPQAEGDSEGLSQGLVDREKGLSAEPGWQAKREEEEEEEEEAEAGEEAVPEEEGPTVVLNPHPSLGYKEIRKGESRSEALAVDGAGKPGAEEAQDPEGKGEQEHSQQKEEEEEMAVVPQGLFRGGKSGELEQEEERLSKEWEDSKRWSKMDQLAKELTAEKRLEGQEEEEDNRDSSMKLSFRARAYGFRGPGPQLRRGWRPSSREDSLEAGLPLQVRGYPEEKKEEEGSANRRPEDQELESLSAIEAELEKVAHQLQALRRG
Procedure: (§3) Reaction solutions containing the labeled aptamer (SEQ ID NO: 1) were prepared. Each of the reaction solutions was subjected to CAE under the following conditions. The reaction solution was caused to migrate while separating the components therefrom, and the fluorescence at a maximum absorption wavelength (665 nm) of the fluorescent substance was measured. As the reaction solutions, the following four types of reaction solutions were used: a reaction solution 1 containing the labeled aptamer only; a reaction solution 2 containing the labeled aptamer and the α-amylase; a reaction solution 3 containing the labeled aptamer and the saliva; and a reaction solution 4 containing the labeled aptamer as the negative control and the saliva. In each of the reaction solutions, the concentration of the labeled aptamer was 200 nmol/L. In the reaction solution 2, the concentration of the α-amylase was 2 μmol/L. In the reaction solutions 3 and 4, the concentration of the saliva was 10%. The reminder of each of the reaction solutions was a buffer solution. The composition of the buffer solution was as follows: 40 mmol/L HEPES (pH 7.5), 125 mmol/L NaCl, 5 mmol/L KCl, and 1 mmol/L MgCl₂.
(§4) Preparation of the reaction solution 2 and the binding ability analysis by CAE were carried out in the same manner as in the above item (3), except that the labeled aptamers (SEQ ID NOs: 1, 2, 3, and 19) were used. Further, in order to examine the specificity of the labeled aptamers to the α-amylase, the binding ability analysis by CAE was performed in the same manner as in the case where the above-described reaction solution 2 was used, except that, instead of the α-amylase, human chromogranin A (CgA, recombinant full length protein, Creative BioMart, #CHGA-26904TH) or human IgA (secretory, Biomedicals, LLC-Cappel Products, #55905), each having a His-tag fused at the N terminus were used.

alpha-amylase [4] = target: T1, alpha-amylase; assay: capillary electrophoresis; 200 nM aptamer, 2 uM amylase, 1 mM MgCl2; conditions: tags: none stated; commercial human alpha-amylase, Lee Biosolutions; label: 5' TYE665
Procedure: as §3, §4

alpha-amylase [5] = target: T1, alpha-amylase; assay: SPR; SPR buffer with 1 mM MgCl2, pH 7.4; Chi2 5.18; conditions: tags: none stated; commercial human alpha-amylase, Lee Biosolutions; label: 3' poly(dA)20 captured on biotin-poly(dT)20
Procedure: as §1, §2

alpha-amylase [6] = target: T1, alpha-amylase; assay: SPR; 40 mM HEPES pH 7.4, 125 mM NaCl, 5 mM KCl, 1 mM MgCl2, 0.01% Tween 20; Chi2 2.68; conditions: tags: none stated; commercial human alpha-amylase, Lee Biosolutions; label: 3' poly(dA)20 captured on biotin-poly(dT)20
Procedure: as §1, §2

B1: AML1243KR8m4 (ssDNA)
DNA: GGATACCTTAACGCCGCCTATTGATTCTCTGTGACTAGTGTTTGTAGGTCGCAGAGTTGCACCCGTCTCGAAATCAAAAAAAAAAAAAAAAAAAA
modifications: KS9 modified T (formula 1) at underlined T, i.e. T 3' of the 5' primer region
alpha-amylase [1]
  binding result: binds

B2: AML1243KR8m2s63 (ssDNA)
DNA: GGATACCTTAACGCCGCCTATTGCTATGAGTAGTGTTTGTAGGTCTGGCATGCGAGTTGCACCAAAAAAAAAAAAAAAAAAAA
modifications: KS9 modified T (formula 1) at underlined T, i.e. T 3' of the 5' primer region
alpha-amylase [2]
  Kd: 3.93 nM

B3: AML1243KR8m5 (ssDNA)
DNA: GGATACCTTAACGCCGCCTATTGAGTTCAACAATGACTAGTGTTTGTCGGTCTGAGTTGCACCCGTCTCGAAATCAAAAAAAAAAAAAAAAAAAA
modifications: KS9 modified T (formula 1) at underlined T, i.e. T 3' of the 5' primer region
alpha-amylase [1]
  binding result: binds

B4: AML1243KR8m2s49 (ssDNA)
DNA: GGATACCTTAACGCCGCCTATTGCTATGAGTAGTGTTTGTAGGTCTGGCAAAAAAAAAAAAAAAAAAAA
modifications: KS9 modified T (formula 1) at underlined T, i.e. T 3' of the 5' primer region
alpha-amylase [3]
  Kd: 3.19 nM

B5: TYE665-Amy_258KK10R8m2 (ssDNA)
DNA: GGTTACGCCCAGGACACATTTCATTGATGGCATACTAAGGGTCGAGGAATTCGTAAGCTCGGTCTCCTCGGATAATC
modifications: KK10 modified T (formula 2) at double-underlined T, i.e. T 3' of the 5' primer region
Chromogranin A (CgA)
  binding result: no binding
alpha-amylase [4]
  binding result: binds

B6: TYE665-AML1243KR8m3 (ssDNA)
DNA: GGATACCTTAACGCCGCCTATTGCGAGGTGTGGCTAGTCGTTATAGGTCCACCGAGTTGCACCCGTCTCGAAATC
modifications: KS9 modified T (formula 1) at underlined T, i.e. T 3' of the 5' primer region
Chromogranin A (CgA)
  binding result: no binding
alpha-amylase [4]
  binding result: binds

B7: AML1243KR8m1s65_FW_s15 (ssDNA)
DNA: TAACGCCGCCTATTGTGAACGACGTGAATAGTGTTTGTGGGTCCGGAGTTGCACCCGAAAAAAAAAAAAAAAAAAAA
modifications: KS9 modified T (formula 1) at underlined T, i.e. T 3' of the 5' primer region
alpha-amylase [5]
  Kd: 0.447 nM

B8: AML1243KR8m1s58_FW_s15 (ssDNA)
DNA: TAACGCCGCCTATTGTGAACGACGTGAATAGTGTTTGTGGGTCCGGAGTTAAAAAAAAAAAAAAAAAAAA
modifications: KS9 modified T (formula 1) at underlined T, i.e. T 3' of the 5' primer region
alpha-amylase [6]
  Kd: 0.358 nM
